In patent publication US20090075342:

System: IgE (full length human IgE, h-IgE) (Homo sapiens), P01854-1
Assay: filter
Conditions: 2'-deoxy at 6, 8, 9, 16, 18, 19, 20, 21, deoxyinosine at 16, 18, 20 (written as G), T24 = 3' inverted dT], dot-blot, DPBS with Mg and Ca, 0.1 mg/mL BSA, room temperature, 30 min

IgE (full length human IgE, h-IgE) (Homo sapiens), P01854-1, sequence (P01854 other isoform, or with tags, fused parts or gaps): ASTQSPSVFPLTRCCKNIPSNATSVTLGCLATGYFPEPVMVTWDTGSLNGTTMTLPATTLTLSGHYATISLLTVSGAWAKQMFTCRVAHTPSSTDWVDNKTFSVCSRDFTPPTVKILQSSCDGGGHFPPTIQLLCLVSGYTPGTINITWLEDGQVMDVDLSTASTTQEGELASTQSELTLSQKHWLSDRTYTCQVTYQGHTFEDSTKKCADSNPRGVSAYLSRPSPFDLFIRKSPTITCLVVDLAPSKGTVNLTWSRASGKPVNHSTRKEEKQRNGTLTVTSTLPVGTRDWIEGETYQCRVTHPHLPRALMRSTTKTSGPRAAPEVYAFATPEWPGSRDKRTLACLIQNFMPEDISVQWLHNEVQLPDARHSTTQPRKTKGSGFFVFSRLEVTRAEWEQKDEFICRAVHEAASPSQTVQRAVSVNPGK

AGCCUGGGGACCCAUGGGGGGCU [ARC1666]
Kd (2'-OMe at A1 G2 C3 C4 U5 G7 A10 C11 C12 C13 A14 U15 G17 C22 U23, 2'-deoxy at G6 G8 G9 I16 I18 G19 I20 G21, n = deoxyinosine, PS between 8-9, 15-16, 16-17, 18-19, 20-21, 3' 3T cap (inverted dT) [2'-OMe at 1-5, 7, 10-15, 17, 22, 23): 35 pM

AGCCUGGGGACCCAUGGGGGGCU [ARC2982]
Kd (as ARC1666 (2'-OMe/2'-deoxy/deoxyinosine, 3' 3T cap) with PS between 8-9, 15-16, 16-17, 17-18, 18-19, 20-21 [2'-OMe at 1-5, 7, 10-15, 17, 22, 23, PS between 8-9, 15-16, 16-17, 17-18, 18-19, 20-21): 30 pM

AGCCUGGGGACCCAUGGGGGGCU [ARC2983]
Kd (as ARC1666 (2'-OMe/2'-deoxy/deoxyinosine, 3' 3T cap) with PS between 8-9, 15-16, 16-17, 18-19, 19-20, 20-21 [2'-OMe at 1-5, 7, 10-15, 17, 22, 23, PS between 8-9, 15-16, 16-17, 18-19, 19-20, 20-21): 20 pM

AGCCUGGGGACCCAUGGGGGGCU [ARC3901]
Kd (as ARC1666 (2'-OMe/2'-deoxy/deoxyinosine, 3' 3T cap) with PS between 8-9, 15-16, 16-17, 17-18, 18-19, 19-20, 20-21 [2'-OMe at 1-5, 7, 10-15, 17, 22, 23, PS between 8-9, 15-16, 16-17, 17-18, 18-19, 19-20, 20-21): 130 pM
